# Target: the molecule itself
# Experiment: SEC; HiLoad 16/60 Superdex 200 prep grade column on an Äkta FPLC in buffer A (20 mM Hepes, 300 mM NaCl, 100 mM L-arginine, 1 mM TCEP, pH 7.0); molecular weight from a calibration curve of gel filtration standards; self-association, dimer or monomer
protein,measurement,value
"recombinant BosR with a C-terminal Strep-II tag (WT rBosR-StrepII) (natural protein, BosR (Fur family member), Borrelia burgdorferi strain 297, ORF bb0647; bosR amplified with primers from the ATG start codon to the last codon before the stop, fused directly to the Strep-II tag; theoretical MW of rBosR-StrepII 21.25 kDa; also called pOY436; source: E. coli M15 (pREP4), purified (Strep-Tactin resin, Superdex 200 FPLC)) MNDNIIDVHSALEKVGITNDPVLLKNLTSELGMKASHSRNRIILYIASNPKEYFTAKEVYNKLIKEIPSLSKATVYNTLNILKERNILKDIKTTDQKETKFYLSLASTIAHFKCNKCNQVHPIQLDDIKDILKDKLGENWETKSIEIIYSGHCNNCYKKDTHNNNNVPDENKEITL",stoichiometry N,2

# Reference: publication PMC6476982, “The CXXC Motifs Are Essential for the Function of BosR in Borrelia burgdorferi” (Frontiers in Cellular and Infection Microbiology, 2019)
